Assay results reported in paper doi:10.1101/301655 (bioRxiv, 2018).

T1: Lon protease (Caulobacter crescentus) (Caulobacter crescentus, UniProt P0CAW0 1-799)
T1 sequence (looked up): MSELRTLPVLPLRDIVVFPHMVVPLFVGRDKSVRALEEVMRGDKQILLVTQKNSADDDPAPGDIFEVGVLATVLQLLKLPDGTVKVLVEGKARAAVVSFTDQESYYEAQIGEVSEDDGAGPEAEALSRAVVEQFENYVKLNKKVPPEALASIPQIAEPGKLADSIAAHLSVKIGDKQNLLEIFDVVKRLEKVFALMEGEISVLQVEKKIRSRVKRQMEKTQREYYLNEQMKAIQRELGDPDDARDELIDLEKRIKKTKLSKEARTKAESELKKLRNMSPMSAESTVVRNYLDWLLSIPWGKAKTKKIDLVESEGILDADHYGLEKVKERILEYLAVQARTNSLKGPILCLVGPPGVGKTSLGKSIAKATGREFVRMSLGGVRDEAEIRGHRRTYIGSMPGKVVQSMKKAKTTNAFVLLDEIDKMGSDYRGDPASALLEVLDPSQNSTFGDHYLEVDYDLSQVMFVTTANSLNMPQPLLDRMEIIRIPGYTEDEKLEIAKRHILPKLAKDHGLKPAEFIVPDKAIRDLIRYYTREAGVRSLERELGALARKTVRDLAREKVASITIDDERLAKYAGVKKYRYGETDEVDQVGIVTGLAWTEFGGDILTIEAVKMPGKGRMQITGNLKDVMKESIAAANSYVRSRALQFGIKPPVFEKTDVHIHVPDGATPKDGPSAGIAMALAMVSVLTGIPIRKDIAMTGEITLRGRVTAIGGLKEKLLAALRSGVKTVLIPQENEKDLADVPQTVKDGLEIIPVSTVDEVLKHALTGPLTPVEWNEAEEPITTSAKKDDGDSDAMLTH

B1: DnaA fragment 143-490 (domains III+IV) (domain or fragment, Caulobacter crescentus, UniProt P0CAU4 143-490, looked up)
chain: SPRTQGLQERFTFETFVPGPANEFAHAVARRIANWADGHFNPVLFHGPYGFGKTHLLNALAWEAMRNAPEKRVVYLTAERFLSTFVRAVMDRQTAAFKEELRAADLLIIDDVHFIAGKQSTQEELFHTLTALVGEGGRVVFSADRPPSAMTEMDAHLRSHLSAGLVCGLEPADRNLRLGILERKIQTLGAAHGFEPSIRPEVMQFLADRFTDSVRELEGALNTLSARAGEGLSRMTLDEVQAILRPHLRSGEKRITIDDIQKATAEHYGMKQADLLSERRNRAVARPRQAAMWLAKQLTTRSLPDIGRRFGGRDHTTVLHAVRRIEALRAEDSALSHDLETLTRKLRG
B2: DnaA fragment 143-391 (AAA+ ATPase domain III) (domain or fragment, Caulobacter crescentus, UniProt P0CAU4 143-391, looked up)
chain: SPRTQGLQERFTFETFVPGPANEFAHAVARRIANWADGHFNPVLFHGPYGFGKTHLLNALAWEAMRNAPEKRVVYLTAERFLSTFVRAVMDRQTAAFKEELRAADLLIIDDVHFIAGKQSTQEELFHTLTALVGEGGRVVFSADRPPSAMTEMDAHLRSHLSAGLVCGLEPADRNLRLGILERKIQTLGAAHGFEPSIRPEVMQFLADRFTDSVRELEGALNTLSARAGEGLSRMTLDEVQAILRPHLR
B3: DnaA fragment 117-391 (linker domain II and AAA+ ATPase domain III) (domain or fragment, Caulobacter crescentus, UniProt P0CAU4 117-391, looked up)
chain: AVAAEPIEIVLPVSTDAPTVVAPSAKSPRTQGLQERFTFETFVPGPANEFAHAVARRIANWADGHFNPVLFHGPYGFGKTHLLNALAWEAMRNAPEKRVVYLTAERFLSTFVRAVMDRQTAAFKEELRAADLLIIDDVHFIAGKQSTQEELFHTLTALVGEGGRVVFSADRPPSAMTEMDAHLRSHLSAGLVCGLEPADRNLRLGILERKIQTLGAAHGFEPSIRPEVMQFLADRFTDSVRELEGALNTLSARAGEGLSRMTLDEVQAILRPHLR

target: T1, Lon protease (Caulobacter crescentus); assay: filtration-spin binding assay

Binding result, binds:
B1
B2
B3
